Laboratory results published in paper PMC7015237, “mTORC1 signalling is not essential for the maintenance of muscle mass and function in adult sedentary mice” (Journal of Cachexia, Sarcopenia and Muscle, 2019).

Molecular target: T1, eukaryotic translation initiation factor 4E (mouse (endogenous in gastrocnemius …, UniProt P63073 1-217))
T1 construct: eukaryotic translation initiation factor 4E (eIF4E), mouse, endogenous in gastrocnemius muscle; also called eIF4E; source: endogenous, mouse gastrocnemius muscle lysate (3 month iRAmKO and control mice)
T1 sequence (P63073 whole entry): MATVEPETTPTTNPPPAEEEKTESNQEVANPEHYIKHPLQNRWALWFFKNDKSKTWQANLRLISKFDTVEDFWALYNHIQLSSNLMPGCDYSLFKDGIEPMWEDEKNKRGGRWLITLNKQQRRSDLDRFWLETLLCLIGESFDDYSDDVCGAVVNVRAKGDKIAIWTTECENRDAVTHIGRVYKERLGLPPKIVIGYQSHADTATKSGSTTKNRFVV
Assay: pull-down; m7GTP-agarose beads on 400 ug gastrocnemius lysate of 3 month iRAmKO (raptor-depleted) and control mice, overnight at 4°C; lysis buffer 20 mM Hepes pH 7.4, 50 mM KCl, 0.2 mM EDTA, 0.5% Triton X-100; western blot for eIF4E and 4E-BP1; 4E-BP1 normalised to eIF4E
Conditions: partners not purified

fold change of the ratio of 4E-BP1 to eIF4E in the m7GTP pulldown, iRAmKO against control mice: 2.5 fold
B1: eukaryotic translation initiation factor 4E-binding protein 1 (natural protein, UniProt Q60876 1-117, looked up)
chain: MSAGSSCSQTPSRAIPTRRVALGDGVQLPPGDYSTTPGGTLFSTTPGGTRIIYDRKFLMECRNSPVAKTPPKDLPAIPGVTSPTSDEPPMQASQSQLPSSPEDKRAGGEESQFEMDI
notes: Phosphorylation of 4E-BP1 (S65) is lower in iRAmKO muscle than in controls; the phosphorylation state of the pulled-down protein was not determined; also called 4E-BP1; source: endogenous, mouse gastrocnemius muscle lysate (3 month iRAmKO and control mice)
